The values that follow come from the supplement of paper PMC12764529.

± gives the half width of the 95% confidence interval.

A short description of series [1]: folding stability dG unfold from chymotrypsin proteolysis; higher = more stable. On the procedure: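 Folding stability of de novo designed mini-proteins (<80 aa, no Cys; designed by TrROS, TrMRF, ProteinMPNN and the joint model) was measured by cDNA display proteolysis with trypsin and chymotrypsin. Each protease was used at 11 concentrations in a threefold dilution series plus a no-protease condition. K50 was inferred by Bayesian fitting of sequencing counts, and dG unfold was derived against a sequence-predicted unfolded-state K50 (Tsuboyama et al. method). Sequences shown include variable-length N-terminal GS-type padding (SAGGSAGG...) inside a display construct carrying a PA tag. Rows were kept only if the AF2 dimer inter-PAE was >15, to exclude likely homo-oligomers.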

A short description of series [2]: folding stability dG unfold (combined trypsin and chymotrypsin); higher = more stable. An outline of the steps:
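Designed mini-proteins with no cysteine and under 80 residues were kept only if AlphaFold2 dimer inter-PAE was above 15. In a PA-tagged cDNA display construct, they were digested with trypsin and chymotrypsin and then sequenced. K50 was inferred by Bayesian fitting of counts, and unfolding free energy was derived per protease or combined against a sequence-predicted unfolded-state K50 and a shared folded-state K50.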

For “SAGGSAGGSAGGSHPVKITEITEFNPGDNRMRIDIKHPNGGKKEIVVPGMPVEEILNAISAGGSAGGSAGGS [r4_357_TrROS]”, the “folding stability dG unfold” value in series [1] is 0.0992 ± 0.031 kcal/mol; in series [2] it was -0.635 ± 0.21 kcal/mol.

Take “SAGGSAGGSAGGSKIIRIKAKPNEKKEIKIDGKWYKLYADKDNPDRVYIERPDGTIDPASAGGSAGGSAGGS [r4_488_TrMRF]”: the “folding stability dG unfold” value in series [1] amounted to 0.685 ± 0.14 kcal/mol; in series [2], 0.26 ± 0.13 kcal/mol.

As for “SAGGSAGGSAGGSKRIRITIPENYRVRGPNGKQFSWNDIEELKASGFKPIEIEPLPPGASAGGSAGGSAGGS [r4_47_TrROS]”, the figures for the “folding stability dG unfold” value in series [1] and in series [2] were -1.06 ± 0.4 kcal/mol and below -1 kcal/mol, respectively.

Regarding “SAGGSAGGSAGGSLAPALAAAIAPLLPKDGTFVFVAEPVGDRLVIVTETRPLREDEERGSAGGSAGGSAGGS [r4_350_TrMRF]”, the results for the “folding stability dG unfold” value in series [1] and in series [2] were 0.496 ± 0.047 kcal/mol and -0.707 ± 0.25 kcal/mol, respectively.

Take “SAGGSAGGSAGGSLEEKAEAAYKKNPTTVPVELPLPGGVPATLTVTRTSPDSLDITRTLSAGGSAGGSAGGS [r10_395_JUSTAS]”: the “folding stability dG unfold” value is 0.232 ± 0.2 kcal/mol in series [1] and below -1 kcal/mol in series [2].

Take “SAGGSAGGSAGGSMEVVETEEPGPGEERIRIVRFKEKTIVTRTPPDGVPTSEELPISELSAGGSAGGSAGGS [r10_1075_JUSTAS]”: the “folding stability dG unfold” value in series [1] is 0.0261 ± 0.2 kcal/mol; in series [2] it was -0.247 ± 0.2 kcal/mol.

On to “SAGGSAGGSAGGSMKKVEVEIPYSFEGPPTFNPEEIEKKLKEEGINAKIKTKYIPKSKEKSAGGSAGGSAGG [r7_355_JUSTAS]”, for which the entries for the “folding stability dG unfold” value in series [1] and in series [2] were -0.145 ± 0.39 kcal/mol and -0.321 ± 0.7 kcal/mol, respectively.

Consider “SAGGSAGGSAGGSMSTLSLTIPVGGEPVSVTVQQLYDPTKNTTTTLLPPEAAAVIARAAGSAGGSAGGSAGG [r11_91_JUSTAS]”, for which the results for the “folding stability dG unfold” value in series [1] and in series [2] were -0.449 ± 0.19 kcal/mol and below -1 kcal/mol, respectively.

For the sequence “SAGGSAGGSAGGSPFEGPRPVVVKPVSPEILAKTPPEEVKKRLKEELPESVTIVETNPLPSAGGSAGGSAGG [r7_487_JUSTAS]”, the “folding stability dG unfold” value in series [1] was 0.12 ± 0.1 kcal/mol; in series [2] it was below -1 kcal/mol.

Take “SAGGSAGGSAGGSPSTRTPITVEVKSPTALSRFTYDTGLSPAEIAAPFAAGGYTVTFVSSAGGSAGGSAGGS [r10_540_JUSTAS]”: the “folding stability dG unfold” value in series [1] is -0.127 ± 0.22 kcal/mol; in series [2], -0.538 ± 0.16 kcal/mol.

With “SAGGSAGGSAGGSSRVLKGKDTTVVLYPDSVTFYPGSTGTPVVKSISDPEVVEEIKKLLSAGGSAGGSAGGS [r4_353_JUSTAS]”, the “folding stability dG unfold” value in series [1] was -0.192 ± 0.33 kcal/mol; in series [2], below -1 kcal/mol.

Consider “SAGGSAGGSAGGSSSSSGTTLVPVTITTETFLNDDTPVTTVTTVLKTLAPDETLADLLASAGGSAGGSAGGS [r4_283_JUSTAS]”, for which the “folding stability dG unfold” value was -0.292 ± 0.11 kcal/mol in series [1] and -0.519 ± 0.26 kcal/mol in series [2].

As for “SAGGSAGGSAGGSSVSVSFDPATGTRTVTYTTLDPSNGKILSSTTSTTAVALAATPAAASAGGSAGGSAGGS [r10_842_JUSTAS]”, the “folding stability dG unfold” value was 0.661 ± 0.058 kcal/mol in series [1] and -0.288 ± 0.17 kcal/mol in series [2].

“SAGGSAGGSAGGTIQWDPANGRIKITNPNGKKKTIPIPPDDPEEFLKELKDNGIDRIEPVSAGGSAGGSAGG [r7_139_TrROS]”: the “folding stability dG unfold” value in series [1] was found to be 0.964 ± 0.075 kcal/mol; in series [2] it was 0.38 ± 0.25 kcal/mol.

Turning to “SAGGSAGGSAGGTKELAEALRDAGYEVEYDKATNKIEVRPKPKPKPVVKTVTFVPKEDLSAGGSAGGSAGGS [r10_1173_TrROS_Hall]”, the “folding stability dG unfold” value in series [1] was -0.433 ± 0.11 kcal/mol; in series [2], -0.51 ± 0.36 kcal/mol.

For the sequence “SAGGSAGGSAGGTLIKTSDDTIVIPIGDPEEAEKAAEEIKAKLGDVDLKVEILSPEELRGSAGGSAGGSAGG [r7_645_JUSTAS]”, the “folding stability dG unfold” value in series [1] is 0.487 ± 0.032 kcal/mol; in series [2], 0.13 ± 0.14 kcal/mol.

As to “SAGGSAGGSAGGTTLLFPDKIIRTLPLPPGAVFDVPPGLTLEGVEEDPSTGTLTVTVKGLSAGGSAGGSAGG [r11_942_JUSTAS]”, the “folding stability dG unfold” value was 0.0814 ± 0.14 kcal/mol in series [1] and -0.211 ± 0.24 kcal/mol in series [2].

Consider “SAGGSAGGSAGGTVVPEKEARELARKVAEKGEPIEVEIGDPGPKKPRTVLITPEDLEERSAGGSAGGSAGGS [r10_779_JUSTAS]”, for which the “folding stability dG unfold” value in series [1] was -0.219 ± 0.18 kcal/mol; in series [2] it was below -1 kcal/mol.

On to “SAGGSAGGSAGGWTLEELKNAPPGEPVTITIPMYSPNGDKKQPMRIRITPDDGEIEIEMSAGGSAGGSAGGS [r10_394_TrROS]”, for which the “folding stability dG unfold” value in series [1] was determined as 0.908 ± 0.13 kcal/mol; in series [2], 0.406 ± 0.15 kcal/mol.

Consider “SAGGSAGGSAGIIEFPFPLNEAKKLAENLPPGFRPVNVEPDPDNDRIWVIIQVVPPKKGKSAGGSAGGSAGG [r17_98_TrROS]”, for which the “folding stability dG unfold” value was -0.992 ± 0.73 kcal/mol in series [1] and below -1 kcal/mol in series [2].

On to “SAGGSAGGSAGKEPILAIPNPEFPDVVIIKTKDGVRAVPVEELKELDIDAVMSLEEALASSAGGSAGGSAGG [r17_88_TrMRF]”, for which the “folding stability dG unfold” value in series [1] came out at 0.731 ± 0.067 kcal/mol; in series [2], 0.174 ± 0.2 kcal/mol.
